Data as given in patent US20210000940A1.
Where two headings read alike, the source gives them in different places.

Columns and labels:
[1] = target: Andes virus glycoprotein Gc, wild type (Andes orthohantavirus CHI-7913) (UniProt Q9E006)
[2] = target: Andes virus glycoprotein Gc, wild type (Andes orthohantavirus CHI-7913) (UniProt Q9E006); remark: listed apart in the source

Substance: Andes virus glycoprotein Gn, wild type (from UniProt Q9E006 19-651)
- melting temperature (Tm) of temperature-induced Gn/Gc dissociation [1]: 36.3 °C
- melting temperature (Tm) of temperature-induced Gn/Gc dissociation [2]: 37.7 °C
